How the values were obtained:
TRPV1-YFP [1] = test: FRET ratio regression, design-CFP and TRPV1-YFP co-expressed in HEK293 cells; set-up: Apparent KD (FRET ratio fit): unit not given here
TRPV1-YFP [2] = test: spectraFRET in live HEK293 cells, CFP on design, YFP on TRPV1
TRPV1-YFP [3] = test: spectraFRET in live HEK293 cells, CFP on design, YFP on TRPV1; indistinguishable from CFP+YFP negative control

Apparent KD (FRET ratio fit) (TRPV1-YFP [1])	FRET ratio max (TRPV1-YFP [1])	FRET efficiency (TRPV1-YFP [2]) [%]	FRET efficiency (TRPV1-YFP [3]) [%]	Binder
120000	3.86			De1-CFP (designed binder, not shown: large carriers) NGYSSEDKLRIAKRHLLPKQIERNALKKGELFVSEFAILGIILFYTDEAGVRGLEREISKLCRKAVKQLLLDKSTTSSHASGFHLHDYLGVMR
75000	2.35	7.4		De2-CFP (designed binder, not shown: large carriers) NGYWSEDKERIAKRHLLPKQIERNALKKGELKVWEFAIFGIILFYTWEAGVRGLEREISKLCRKAVKQLLLDKSTTRSWASGFHLHDYLGVMR
9.5e+09			3.8	De4-CFP (designed binder, not shown: large carriers) LPESPRFAQKIWQQSVIGDYLARFKNDRVKALKAMEDSSNNSSMHRFAEFFAKAFEDLHRYLEEL
